The target in this test is T1, human N-glycanase 1 (NGLY-1) (human, UniProt Q96IV0 2-654).
T1 construct: Endogenous protein in cell lysates, denatured on immunoblots; also called human NGLY1 protein
T1 sequence (looked up): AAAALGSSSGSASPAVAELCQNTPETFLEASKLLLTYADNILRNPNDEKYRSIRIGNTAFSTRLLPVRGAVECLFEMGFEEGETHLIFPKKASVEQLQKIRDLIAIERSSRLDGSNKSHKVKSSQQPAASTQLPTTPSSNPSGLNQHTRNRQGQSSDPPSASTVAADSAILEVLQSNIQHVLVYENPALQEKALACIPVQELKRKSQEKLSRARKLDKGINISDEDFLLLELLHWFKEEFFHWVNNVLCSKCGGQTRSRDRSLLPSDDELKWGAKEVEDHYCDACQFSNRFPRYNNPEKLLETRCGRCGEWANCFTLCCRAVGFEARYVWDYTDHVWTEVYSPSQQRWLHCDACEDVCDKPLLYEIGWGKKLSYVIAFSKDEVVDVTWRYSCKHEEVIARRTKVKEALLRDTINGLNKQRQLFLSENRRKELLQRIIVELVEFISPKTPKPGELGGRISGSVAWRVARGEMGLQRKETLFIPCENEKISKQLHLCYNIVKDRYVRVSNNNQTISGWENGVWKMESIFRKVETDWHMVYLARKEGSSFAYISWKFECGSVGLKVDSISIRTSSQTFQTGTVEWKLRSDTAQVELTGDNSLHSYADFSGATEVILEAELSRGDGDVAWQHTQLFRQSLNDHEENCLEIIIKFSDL
Briefly: immunoblot on isogenic human NGLY1 null and wild type iPS cell lines. How it is done:
The conjugate was injected into female BALB/cJ mice at a dose of 10 μg per mouse with Alum adjuvant. Mice were immunized by i.p injection three times approximately two (2) weeks apart. Ten days after the third immunization, splenocytes were isolated and fused with SP2 myeloma cells to create hybridoma cell lines. Hybridomas were cultured in 96-well plates and supernatants screened on protein arrays and by ELISA. Positive clones were further validated by western blot using lysates prepared from C57BL/6J and the CRISPR/Cas9 generated null strain as positive and negative controls. Additional immunoblots were used to identify additional clones that generated antibodies capable of cross reacting with human NGLY1 protein. Isogenic human derived NGLY1 null and wild type iPS cell lines providing positive and negative controls evaluation of anti-human NGLY1 cross-reactivity were provided. A single hybridoma gave rise to clone 5G8 that generated an antibody that was specific to both murine and human NGLY1 protein and was used for subsequent studies.
In general terms: Immunoblotting shows a protein as a band on a membrane.

These results are taken from patent publication US20210139607A1 (JACKSON LABORATORY, published 2021).

B1: mouse anti-NGly-1 monoclonal antibody, clone 5G8 (antibody, V domains shown)
VH: QVQLQQSGAELVRPGTSVKVSCKASGYAFINYLIEWVKQRPGQGLEWIGIISPGSGSTNYNEEFRGRATLTADRSSSTAYMQLSSLTSDDSAVYFCARGGLTHYSGSTYEEGFDFWGQGTTLTVSS
VL: QAVVTQESALTTSPGETVTLTCRSSTGAVTTTNYANWVQEKPDHLFTGLIGGTNNRAPGVPARFSGSLIGDKAALTITGAQTDDEAIYFCALWYSNRWVFGGGTKLTVLG
notes: also called anti-NGly-1 monoclonal antibody of the present disclosure; Mouse monoclonal (anti-mouse peptide), JAX Monoclonal Service
Regarding B1, the binding result is listed as “binds”.
